Data on 15 molecules can be found in publication PMC9783754 (International Journal of Molecular Sciences, 2022).

The term stoichiometry N denotes a count of units in the complex or per binding partner.

Numbering of substitutions follows the chain as printed. Some results are limits rather than exact numbers.

The chains are these.
B1: Recombinant human S100A12 (natural protein, UniProt P80511 1-92, looked up)
chain: MTKLEEHLEGIVNIFHQYSVRKGHFDTLSKGELKQLLTKELANTIKNIKDKAVIDEIFQGLDANQDEQVDFQEFISLVAIALKAAHYHTHKE
notes: S100A12, human, UniProt ID P80511 (printed in the methods of the database search); monomer and dimer by cross-linking at 4 µM; source: E. coli, purified as previously described
B2: Recombinant human S100A11 (natural protein, UniProt P31949 1-105, looked up)
chain: MAKISSPTETERCIESLIAVFQKYAGKDGYNYTLSKTEFLSFMNTELAAFTKNQKDPGVLDRMMKKLDTNSDGQLDFSEFLNLIGGLAMACHDSFLKAVPSQKRT
notes: S100A11, human, UniProt ID P31949 (printed in the methods of the database search); mainly dimeric by cross-linking at 4 µM; source: E. coli, purified as previously described
B3: Recombinant human S100A13 (natural protein, UniProt Q99584 1-98, looked up)
chain: MAAEPLTELEESIETVVTTFFTFARQEGRKDSLSVNEFKELVTQQLPHLLKDVGSLDEKMKSLDVNQDSELKFNEYWRLIGELAKEIRKKKDLKIRKK
notes: S100A13, human, UniProt ID Q99584 (printed in the methods of the database search); source: E. coli, purified as previously described
B4: Recombinant human S100A3 (natural protein, UniProt P33764 1-101, looked up)
chain: MARPLEQAVAAIVCTFQEYAGRCGDKYKLCQAELKELLQKELATWTPTEFRECDYNKFMSVLDTNKDCEVDFVEYVRSLACLCLYCHEYFKDCPSEPPCSQ
notes: S100A3, human; Ca2+-loaded in the assay; source: E. coli, purified as previously described
B5: Recombinant human S100A7 (natural protein, UniProt P31151 1-101, looked up)
chain: MSNTQAERSIIGMIDMFHKYTRRDDKIEKPSLLTMMKENFPNFLSACDKKGTNYLADVFEKKDKNEDKKIDFSEFLSLLGDIATDYHKQSHGAAPCSGGSQ
notes: S100A7, human; Ca2+-loaded in the assay; source: E. coli, purified as previously described
B6: Recombinant human S100A15 (natural protein, UniProt Q86SG5 1-101, looked up)
chain: B5 chain with R22G, D25G, T52I, N53H, D57T, T84A
notes: Ca2+-loaded in the assay; source: E. coli, purified as previously described
B7: Recombinant human S100A14 (natural protein, UniProt Q9HCY8 1-104, looked up)
chain: MGQCRSANAEDAQEFSDVERAIETLIKNFHQYSVEGGKETLTPSELRDLVTQQLPHLMPSNCGLEEKIANLGSCNDSKLEFRSFWELIGEAAKSVKLERPVRGH
notes: S100A14, human; Ca2+-loaded in the assay; source: E. coli, purified as previously described
B8: Recombinant human S100A9 (natural protein, UniProt P06702 1-114, looked up)
chain: MTCKMSQLERNIETIINTFHQYSVKLGHPDTLNQGEFKELVRKDLQNFLKKENKNEKVIEHIMEDLDTNADKQLSFEEFIMLMARLTWASHEKMHEGDEGPGHHHKPGLGEGTP
notes: S100A9, human; Ca2+-loaded in the assay; source: E. coli, purified as previously described
B9: Recombinant human S100A2 (natural protein)
chain: not shown
notes: S100A2, human; Ca2+-loaded in the assay; source: E. coli, purified as previously described
B10: Recombinant human S100A4 (natural protein)
chain: not shown
notes: S100A4, human; Ca2+-loaded in the assay; source: E. coli, purified as previously described
B11: Recombinant human S100A5 (natural protein, UniProt P33763 1-92, looked up)
chain: METPLEKALTTMVTTFHKYSGREGSKLTLSRKELKELIKKELCLGEMKESSIDDLMKSLDKNSDQEIDFKEYSVFLTMLCMAYNDFFLEDNK
notes: S100A5, human; Ca2+-loaded in the assay; source: E. coli, purified as previously described
B12: Recombinant human S100B (natural protein, UniProt P04271 1-92, looked up)
chain: MSELEKAMVALIDVFHQYSGREGDKHKLKKSELKELINNELSHFLEEIKEQEVVDKVMETLDNDGDGECDFQEFMAFVAMVTTACHEFFEHE
notes: S100B, human; Ca2+-loaded in the assay; source: E. coli, purified as previously described
B13: Recombinant human S100A8 (natural protein, UniProt P05109 1-93, looked up)
chain: MLTELEKALNSIIDVYHKYSLIKGNFHAVYRDDLKKLLETECPQYIRKKGADVWFKELDINTDGAVNFQEFLILVIKMGVAAHKKSHEESHKE
notes: S100A8, human; Ca2+-loaded in the assay; source: E. coli, purified as previously described
B14: Recombinant human S100A16 (natural protein, UniProt Q96FQ6 1-103, looked up)
chain: MSDCYTELEKAVIVLVENFYKYVSKYSLVKNKISKSSFREMLQKELNHMLSDTGNRKAADKLIQNLDANHDGRISFDEYWTLIGGITGPIAKLIHEQEQQSSS
notes: S100A16, human; Ca2+-loaded in the assay; source: E. coli, purified as previously described
B15: Recombinant human S100P (natural protein, UniProt P25815 1-95, looked up)
chain: MTELETAMGMIIDVFSRYSGSEGSTQTLTKGELKVLMEKELPGFLQSGKDKDAVDKLLKDLDANGDAQVDFSEFIVFVAAITSACHKYFEKAGLK
notes: S100P, human; Ca2+-loaded in the assay; source: E. coli, purified as previously described

The first series deals with the molecule itself. Briefly: cross-linking; 4 µM sTNF and/or S100 protein (sTNF to S100 1:0, 0:1, 1:0.5, 1:1, 1:2), 20 mM EDAC and 5 mM sulfo-NHS, 25 °C, 1.5 h; 10 mM HEPES, 150 mM NaCl, pH 7.4 with 1 mM CaCl2; SDS-PAGE with silver staining.
Details: not given
For B1, the “stoichiometry N” value was 2.
The same measure, in the same setting: in the case of B2 it was 2.

The target in a further series is T1, Recombinant human sTNF (soluble form of tumor necrosis factor) (human, UniProt P01375 77-233).
T1 construct: additional N-terminal methionine, stated in words; tumor necrosis factor, human, soluble form (157 residues), residues 77-233 of UniProt entry P01375; Monomeric on the SPR chip after long flushing and glycine pH 3.3 washes; multimeric in solution in the fluorimetric titrations and cross-linking; also called TNF-α; TNF ligand superfamily member 2; source: bought: Prospec-Tany Technogene (catalog # …)
T1 sequence (P01375 other isoform, or with tags, fused parts or gaps): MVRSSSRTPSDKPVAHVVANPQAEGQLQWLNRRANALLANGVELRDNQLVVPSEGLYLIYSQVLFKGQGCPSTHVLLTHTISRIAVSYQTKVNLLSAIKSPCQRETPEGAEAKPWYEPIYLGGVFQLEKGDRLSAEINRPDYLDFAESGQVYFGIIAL
The series is described as follows: other fluorescence titration; 280 nM (S100A11) or 0.5 µM (S100A12) multimeric sTNF titrated by Ca2+-bound S100 protein; Trp fluorescence of sTNF, excitation 295/298 nm, intensity at 325 nm; 25 °C; 10 mM HEPES-NaOH, 150 mM NaCl, 1 mM CaCl2, pH 7.4; single site binding model; apparent. The settings on record: both partners purified.
B1: the Kd turned out to be 348 ± 50 nM and the “stoichiometry N” value was found to be 1.
With B2, the Kd was 104 ± 23 nM and the “stoichiometry N” value stood at 1.

A further series has as its target T1, Recombinant human sTNF (soluble form of …). The series is described as follows: SPR; ligand (50 μg/mL sTNF or TNF-β) immobilised on a ProteOn GLH chip by amine coupling; chip flushed with running buffer for two days and several times with 10 mM glycine pH 3.3 to dissociate sTNF multimers (monomeric sTNF); Ca2+-loaded S100 protein as analyte, 10 nM–2 µM; 25 °C; 10 mM HEPES, 150 mM NaCl, 1 mM CaCl2, 0.05% TWEEN 20, pH 7.4; heterogeneous ligand model. The settings on record: both partners purified. In general terms: SPR reads the build-up and loss of mass on a sensor chip optically.
With B1, the “Kd1 (KD, ligand population 1)” value is 2.3 nM; the “Kd2 (KD, ligand population 2)” value was found to be 8.4 nM; the “kd1 (koff, ligand population 1)” value is 0.0018 s⁻¹; the “kd2 (koff, ligand population 2)” value is 0.0023 s⁻¹.
For the molecule B2, the “Kd1 (KD, ligand population 1)” value came to 28 nM; the “Kd2 (KD, ligand population 2)” value is 695 nM; the “kd1 (koff, ligand population 1)” value was 0.00018 s⁻¹; the “kd2 (koff, ligand population 2)” value was found to be 0.0084 s⁻¹.
The corresponding values for B3 are 2.4 nM, 4.3 nM, 0.0009 s⁻¹ and 0.0073 s⁻¹.

For the next series the target is unchanged. Described as above. Conditions: both partners purified. The source holds these as a separate data set.
With B4, the Kd was more than 100000 nM.
The same measure, in the same setting: the same measure for B5: more than 100000 nM.
On the same count and under the same terms, the same measure for B6: more than 100000 nM.
Same read-out and setting: the same measure for B7: more than 100000 nM; for B8: more than 100000 nM.
On to B9, for which the Kd is more than 100000 nM.
Regarding B10, the Kd is more than 100000 nM.
On the same count and under the same terms, in the case of B11 it was more than 100000 nM; in that of B12, more than 100000 nM; in that of B13, more than 100000 nM.
Same read-out and setting: in the case of B14 it was more than 100000 nM; in that of B15, more than 100000 nM.
